Reference: paper PMC3307893

Molecular target: Anaphase-Promoting Complex/Cyclosome (APC), Xenopus, immunoprecipitated on Cdc27 antibody beads (Xenopus (endogenous in egg extract))
Experiment: pull-down

Substance: double HA-tagged human Cdc20, wild type (from UniProt Q12834 1-499) (natural protein)
- percent of the deubiquitinated Cdc20 bound to the APC: 47%
